Source: US20220251227A1 (Eli Lilly, published 2022)

T1: human GITR (human, UniProt Q9Y5U5 26-241)
T1 sequence: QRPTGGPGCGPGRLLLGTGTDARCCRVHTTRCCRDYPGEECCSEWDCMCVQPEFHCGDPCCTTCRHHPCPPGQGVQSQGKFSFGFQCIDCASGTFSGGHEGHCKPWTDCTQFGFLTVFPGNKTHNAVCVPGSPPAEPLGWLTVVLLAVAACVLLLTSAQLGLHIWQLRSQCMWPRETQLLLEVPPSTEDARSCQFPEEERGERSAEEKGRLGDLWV

B1: Antibody I (Fab)
heavy: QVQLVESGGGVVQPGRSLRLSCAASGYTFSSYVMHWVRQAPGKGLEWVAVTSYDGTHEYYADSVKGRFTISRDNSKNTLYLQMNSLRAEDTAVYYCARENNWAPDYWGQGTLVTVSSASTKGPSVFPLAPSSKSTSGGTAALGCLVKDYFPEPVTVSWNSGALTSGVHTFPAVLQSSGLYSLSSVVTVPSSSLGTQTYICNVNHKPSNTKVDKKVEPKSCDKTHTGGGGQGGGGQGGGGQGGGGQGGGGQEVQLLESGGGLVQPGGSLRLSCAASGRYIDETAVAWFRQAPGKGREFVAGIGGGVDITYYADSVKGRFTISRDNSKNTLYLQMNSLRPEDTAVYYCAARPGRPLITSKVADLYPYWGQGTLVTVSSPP
light: DIQMTQSPSSLSASVGDRVTITCRASQDISNSLAWYQQKPGKAPKRLIYAAFSLQSGVPSRFSGSGSGTEFTLTISSLQPEDFATYYCYQYYNYPSAFGQGTKLEIKRTVAAPSVFIFPPSDEQLKSGTASVVCLLNNFYPREAKVQWKVDNALQSGNSQESVTEQDSKDSTYSLSSTLTLSKADYEKHKVYACEVTHQGLSSPVTKSFNRGEC
notes: Monovalent anti-GITR Fab; also called HC anti-GITR Fab-VHH Fusion 1 with LC
B2: Antibody II (Fab)
heavy: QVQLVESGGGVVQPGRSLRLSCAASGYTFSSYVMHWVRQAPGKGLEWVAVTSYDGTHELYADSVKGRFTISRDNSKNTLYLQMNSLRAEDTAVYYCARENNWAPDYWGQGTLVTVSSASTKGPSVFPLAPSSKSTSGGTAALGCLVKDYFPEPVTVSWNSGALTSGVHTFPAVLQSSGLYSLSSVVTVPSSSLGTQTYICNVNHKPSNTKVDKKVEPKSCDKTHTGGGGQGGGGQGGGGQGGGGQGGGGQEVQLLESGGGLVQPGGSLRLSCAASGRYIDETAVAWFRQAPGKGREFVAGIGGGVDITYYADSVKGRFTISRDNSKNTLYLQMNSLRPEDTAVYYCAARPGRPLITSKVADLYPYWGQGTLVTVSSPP
light: B1 light
notes: Monovalent anti-GITR Fab; also called HC anti-GITR Fab-VHH Fusion 2 with LC

What was measured:
[1] = target: T1, human GITR; assay: cell-based or functional assay
[2] = target: T1, human GITR; assay: cell-based or functional assay; remark: listed apart in the source
[3] = target: T2, Rabbit serum albumin (rabbit, UniProt P49065 25-608); assay: SPR, Biacore 8K, albumin immobilized on CM5, 25 C
T2 construct: Bought protein, immobilized on a CM5 chip by amine coupling at 118 RU; also called Rabbit SA
Protocol: Binding of Antibody I and Antibody II to various serum albumins is carried out on Biacore 8K instrument. The immobilization of the serum albumin to a Series S Sensor Chip CM5 (Cytiva 29149603) surface is performed according to the manufacturer's instructions (Amine Coupling Kit BR-1000-50). Briefly, carboxyl groups on the sensor chip surfaces (flow cell 1 and 2) are activated by injecting 70 μL of a mixture containing 75 mg/ml 1-Ethyl-3-(3-dimethylaminopropyl) carbodiimide hydrochloride (EDC), and 11.5 mg/ml N-Hydroxysuccinimide (NHS) at 10 μl/min. Human, cynomolgus monkey, rat, mouse, dog, pig, cow, and rabbit serum albumin are diluted in 10 mM sodium acetate pH 4.0 (BR-1003-49) at 0.8, 0.8, 0.8, 2.5, 0.8, 1, 1, and 1.5 μg/m1 then injected over the activated chip surfaces (flow cell 2, channel 1 to 8) at 10 μl/min for 100 seconds. […]
The antibodies of Examples 1 and 2 (i.e., Antibody I and II, respectively) are diluted in HBS-EP+buffer (10 mM HEPES pH 7.6, 150 mM NaCl, 3 mM EDTA, 0.05% Polysorbate 20) at concentrations of 1000, 333.3, 111.1, 37.04, 12.35, 4.12, 1.37, 0.457, 0.152, 0.051 and 0.017 nM. […] The resulting sensorgrams are analyzed using Biacore 8K Insight Evaluation Software (version 3.0.11.15423) 1:1 binding kinetics model fitting to calculate the binding kinetic parameters: association rate (ka), dissociation rate (kd), and equilibrium dissociation constant (KD).

[4] = target: T3, cynomolgus monkey GITR (cynomolgus monkey); assay: flow cytometry on Jurkat cyno GITR/NFkBluc cells, anti-kappa PE detection, geometric mean of 3
T3 construct: whole, on cells; Stood on Jurkat cyno GITR/NFkBluc cells; also called cyno GITR
Protocol: Jurkat human GITR/NFkB-Luc2 and Jurkat cynomolgus monkey GITR/NFkBluc cells are resuspended in FACS buffer (PBS+1% BSA+0.01% sodium azide) at 1 million cells/mL and 5 μl Fc block/mL (BioLegend) is added and incubated at 4° C. for 20 min. Cells are washed with FACS buffer and resuspended at 1e6 cells/mL in FACS buffer and added to a polypropylene 96-well plate at 100 μl/well for 100,000 cells/well. 100 μl/well of 2X antibody dose titrations diluted in FACS buffer are added to cells and incubated 45 minutes at 4° C. Cells are washed twice with 200 μl/well FACS buffer and resuspended in 12.5 μg/mL anti-human Ig light chain kappa/PE secondary antibody (Invitrogen #PA1-74408) in FACS buffer and incubated for 45 minutes at 4° C. Cells are washed twice with 200 μl/well FACS buffer and resuspended in 200 μl FACS buffer. Samples are read on a Millipore EasyCyte Cytometer and median fluorescence intensity values are calculated using GuavaSoft 3.3 InCyte software. EC₅₀ values are calculated for each of 3 experiment replicates and the EC₅₀ Geometric Mean +/−Error (Delta Method) is calculated from these 3 results. The cell binding results shown in Table 5 indicate that both Antibody I and Antibody II bind potently to human GITR and cynomolgus monkey GITR (“cyno GITR”).

[5] = target: T4, Dog serum albumin (dog, UniProt P49822 25-608); assay: SPR, Biacore 8K, albumin immobilized on CM5, 25 C, 1:1 model
T4 construct: Bought protein, immobilized on a CM5 chip by amine coupling; also called Dog SA
Protocol: (§1) Binding of Antibody I and Antibody II to various serum albumins is carried out on Biacore 8K instrument. The immobilization of the serum albumin to a Series S Sensor Chip CM5 (Cytiva 29149603) surface is performed according to the manufacturer's instructions (Amine Coupling Kit BR-1000-50). Briefly, carboxyl groups on the sensor chip surfaces (flow cell 1 and 2) are activated by injecting 70 μL of a mixture containing 75 mg/ml 1-Ethyl-3-(3-dimethylaminopropyl) carbodiimide hydrochloride (EDC), and 11.5 mg/ml N-Hydroxysuccinimide (NHS) at 10 μl/min. Human, cynomolgus monkey, rat, mouse, dog, pig, cow, and rabbit serum albumin are diluted in 10 mM sodium acetate pH 4.0 (BR-1003-49) at 0.8, 0.8, 0.8, 2.5, 0.8, 1, 1, and 1.5 μg/m1 then injected over the activated chip surfaces (flow cell 2, channel 1 to 8) at 10 μl/min for 100 seconds. Human serum albumin was obtained from Sigma Aldrich (St. Louis, Mo.) (Cat. No. A8763).
(§2) The serum albumins are covalently immobilized through free amines onto a carboxymethyl dextran-coated sensor chip CM5 at surface densities of 29-52 resonance units (RU) for human, cynomolgus monkey, rat, mouse, dog, pig, and cow as well as 118 resonance units (RU) for rabbit serum albumin. Excess reactive groups on the surfaces (flow cell 1 and 2) are deactivated by injecting 70 μl of 1 M Ethanolamine hydrochloride-NaOH pH 8.5.
(§3) The antibodies of Examples 1 and 2 (i.e., Antibody I and II, respectively) are diluted in HBS-EP+buffer (10 mM HEPES pH 7.6, 150 mM NaCl, 3 mM EDTA, 0.05% Polysorbate 20) at concentrations of 1000, 333.3, 111.1, 37.04, 12.35, 4.12, 1.37, 0.457, 0.152, 0.051 and 0.017 nM. 180 μl of sample are individually injected sequentially across the immobilized serum albumins on the chip's surface and dissociated for 600 sec at 60 μl/min flow rate at 25° C. The surface is regenerated by injecting 10 mM glycine-HCl pH 1.5 (BR-1003-54) at 60 μl/min for 100 sec. The resulting sensorgrams are analyzed using Biacore 8K Insight Evaluation Software (version 3.0.11.15423) 1:1 binding kinetics model fitting to calculate the binding kinetic parameters: association rate (ka), dissociation rate (kd), and equilibrium dissociation constant (KD).

[6] = target: T5, Pig serum albumin (pig, UniProt P08835 25-607); assay: as above
T5 construct: Bought protein, immobilized on a CM5 chip by amine coupling; also called Pig SA
Protocol: as §1, §2, §3

[7] = target: T6, Human serum albumin (human, UniProt P02768 25-609); assay: as above
T6 construct: Bought protein, immobilized on a CM5 chip by amine coupling; also called Human SA
Protocol: as §1, §2, §3

[8] = target: T7, Cynomolgus monkey serum albumin (cynomolgus monkey, UniProt A2V9Z4 25-608); assay: as above
T7 construct: Bought protein, immobilized on a CM5 chip by amine coupling; also called Cyno SA
Protocol: as §1, §2, §3

[9] = target: T8, Rat serum albumin (rat, UniProt P02770 25-608); assay: as above
T8 construct: Bought protein, immobilized on a CM5 chip by amine coupling; also called Rat SA
Protocol: as §1, §2, §3

[10] = target: T9, Mouse serum albumin (mouse, UniProt P07724 25-608); assay: as above
T9 construct: Bought protein, immobilized on a CM5 chip by amine coupling; also called Mouse SA
Protocol: as §1, §2, §3

[11] = target: T10, Cow serum albumin (cow, UniProt P02769 25-607); assay: as above
T10 construct: Bought protein, immobilized on a CM5 chip by amine coupling; also called Cow SA
Protocol: as §1, §2, §3

[12] = target: T1, human GITR; assay: cell-based or functional assay; remark: listed apart in the source
[13] = target: T3, cynomolgus monkey GITR; assay: cell-based or functional assay
[14] = target: T1, human GITR; assay: flow cytometry on Jurkat human GITR/NFkB-Luc2 cells, anti-kappa PE detection, geometric mean of 3
Protocol: Jurkat human GITR/NFkB-Luc2 cells (CS184004) were purchased from Promega and maintained in RPMI1640 media+10% FBS (HyClone SH30070.3)+400 μg/mL hygromycin B+600 μg/mL G418.
Jurkat human GITR/NFkB-Luc2 and Jurkat cynomolgus monkey GITR/NFkBluc cells are resuspended in FACS buffer (PBS+1% BSA+0.01% sodium azide) at 1 million cells/mL and 5 μl Fc block/mL (BioLegend) is added and incubated at 4° C. for 20 min. Cells are washed with FACS buffer and resuspended at 1e6 cells/mL in FACS buffer and added to a polypropylene 96-well plate at 100 μl/well for 100,000 cells/well. 100 μl/well of 2X antibody dose titrations diluted in FACS buffer are added to cells and incubated 45 minutes at 4° C. Cells are washed twice with 200 μl/well FACS buffer and resuspended in 12.5 μg/mL anti-human Ig light chain kappa/PE secondary antibody (Invitrogen #PA1-74408) in FACS buffer and incubated for 45 minutes at 4° C. Cells are washed twice with 200 μl/well FACS buffer and resuspended in 200 μl FACS buffer. Samples are read on a Millipore EasyCyte Cytometer and median fluorescence intensity values are calculated using GuavaSoft 3.3 InCyte software. EC₅₀ values are calculated for each of 3 experiment replicates and the EC₅₀ Geometric Mean +/−Error (Delta Method) is calculated from these 3 results. […]

| Binder | IC50 nM GeoMean, inhibition of GITRL co-stimulation of T cell proliferation [1] [nM] | IC50 nM Mean, restoration of regulatory T cell suppression of effector T cell proliferation in the presence of GITRL [2] [nM] | binding result [3] | EC50 [4] [nM] | Kd [5] [nM] | koff [5] [s⁻¹] | kon [5] [M⁻¹ s⁻¹] | Kd [6] [nM] | koff [6] [s⁻¹] | kon [6] [M⁻¹ s⁻¹] | Kd [7] [nM] | koff [7] [s⁻¹] | kon [7] [M⁻¹ s⁻¹] | Kd [8] [nM] | koff [8] [s⁻¹] | kon [8] [M⁻¹ s⁻¹] | Kd [9] [nM] | koff [9] [s⁻¹] | kon [9] [M⁻¹ s⁻¹] | Kd [10] [nM] | other results |
| --- | --- | --- | --- | --- | --- | --- | --- | --- | --- | --- | --- | --- | --- | --- | --- | --- | --- | --- | --- | --- | --- |
| B1 | 4.76 | 4.69 | no binding (tested: 1000 nM highest concentration tested) | 3.06 | 20 | 0.0035 | 170000 | 100 | 0.013 | 120000 | 0.25 | 6.5e-05 | 260000 | 4.4 | 0.00082 | 190000 | 44 | 0.007 | 160000 | 53 | koff [10]: 0.0094 s⁻¹; kon [10]: 180000 M⁻¹ s⁻¹; Kd [11]: 460 nM; koff [11]: 0.091 s⁻¹; kon [11]: 200000 M⁻¹ s⁻¹; IC50 nM GeoMean, inhibition of GITRL stimulation of Jurkat GITR/NFkB luciferase cells [12]: 4.1 nM; IC50 nM GeoMean, inhibition of GITRL stimulation of Jurkat GITR/NFkB luciferase cells [13]: 2.27 nM; EC50 [14]: 6.8 nM |
| B2 | 1.84 | 2.72 | no binding (tested: 1000 nM highest concentration tested) | 2.34 | 20 | 0.0034 | 170000 | 99 | 0.012 | 120000 | 0.4 | 7.8e-05 | 190000 | 5.9 | 0.00087 | 150000 | 51 | 0.0073 | 140000 | 42 | koff [10]: 0.0096 s⁻¹; kon [10]: 230000 M⁻¹ s⁻¹; Kd [11]: 430 nM; koff [11]: 0.087 s⁻¹; kon [11]: 200000 M⁻¹ s⁻¹; IC50 nM GeoMean, inhibition of GITRL stimulation of Jurkat GITR/NFkB luciferase cells [12]: 1.68 nM; IC50 nM GeoMean, inhibition of GITRL stimulation of Jurkat GITR/NFkB luciferase cells [13]: 1.26 nM; EC50 [14]: 3.25 nM |
